Target: T1, recombinant human granulocyte-macrophage colony stimulating factor (hGM-CSF) (human, UniProt P04141 18-144)
T1 construct: also called recombinant GM-CSF; recombinant hGM-CSF
Assay: BIAcore, antibody immobilised on sensor chip, recombinant hGM-CSF as analyte
Procedure: Affinity analysis was conducted on the anti-hGM-CSF antibody applying BIAcore® system (FIG. 4). In the method, the antibody (purified antibody) was immobilized to a sensor chip, and then an antigen (recombinant) was added to the surface of the immobilized antibody, so that the interaction between antibody and an antigen was measured. A purified antibody was applied to the antibody, and a recombinant hGM-CSF was applied to the antigen. A mouse anti-GM-CSF monoclonal antibody (commercially available) (R&D) was applied to a positive control, and a purified anti-human cytomegalovirus monoclonal antibody was applied to a negative control. After the analysis, it turned out that antigen-antibody interaction was not detected in the negative control. In the positive control, dissociation constant of 6.1×10^-9 M is shown as the affinity. The affinity of the anti-GM-CSF antibody obtained was 2.1×10^-10 M (FIG. 5).

T1 sequence (P04141 18-144 limits assumed): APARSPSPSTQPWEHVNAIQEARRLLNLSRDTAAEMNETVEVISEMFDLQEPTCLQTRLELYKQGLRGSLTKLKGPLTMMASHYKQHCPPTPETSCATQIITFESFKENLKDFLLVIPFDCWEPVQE

Kd: 0.21 nM
B1: anti-hGM-CSF human monoclonal antibody J158 4C (antibody, human IgG1, kappa, V domains shown)
VH: LVQLVQSEAEVKKPGASVRISCRTSGYIFPTFALHWVRQAPGQSLEWVGSINTASGKTKFSTKFQDRLTLSSNTSATTVYMDLSGLTLDDTALYYCARDRFQNIMATILDVWGQGTLVTVSS
VL: DIVLTQSPGTLSLSPGERVTVSCRASHRVSSNYLAWYQQRPGQSPRLLIFGASNRATGVPDRFSGSGSGTDFALTISRLEPDDFAVYYCQQYASSPVTFGGGTKLEIKR
notes: also called anti-hGM-CSF antibody; anti-GM-CSF antibody
